Experimental data reported in patent US20230357353A1 (RAMOT AT TEL AVIV UNIVERSITY, published 2023).

Tests used:
[1] = molecular target: T1, high affinity (HA) α4β7 integrin on activated cells (Mn2+-treated TK-1 cells or primary mouse leukocytes) (mouse, UniProt Q00651 41-1039; P26011 20-806); assay: flow cytometry on Mn2+-treated TK-1 cells
T1 construct: whole, on cells; Same polypeptides as m4; also called LPAM-1
Method: (§1) In-vitro binding—TK-1 cells were activated according to Y. Yang et al.³⁰. Briefly, cells were washed with PBS and resuspended in resuspension buffer (HBSS with 10 mM HEPES buffer, 2 mM CaCl₂ and 2 mM MgCl₂). Non-activated cells were kept on ice while activated cells were resuspended in pre-incubation buffer (HBSS with 10 mM HEPES buffer and 2 mM EDTA), incubated at RT for 30 minutes with gentle rotation, washed with PBS and finally resuspended in activation buffer (HBSS with 10 mM HEPES buffer, 2 mM CaCl₂ and 2 mM MnCl₂). MAdCAM-D1D2-Fc and the controls were added to both activated and non-activated cells and incubated for 30 minutes at 4° C. Cells were subsequently washed and stained with either anti-human IgG or anti-mouse IgG conjugated to AlexaFluor647 (Biolegend, USA). Binding of D1D2-Fc to TK-1 cells was assessed by analyzing the fluorescence of the cells by flow cytometry. Binding of D1D2-targeted Cy5-LNPs was detected by flow cytometry directly using the Cy5 fluorescence (without addition of another antibody). In the binding experiments with Cy5-LNPs, the HBSS in the activation buffer was replaced with RPMI+10% FBS due to a high background using LNPs.
(§2) Following purification, the functionality of the generated D1D2-Fc and mD1D2-Fc was tested in-vitro by assessing their binding to TK-1 cells using flow cytometry. […]

[2] = molecular target: T2, low affinity (LA) α4β7 integrin on non-activated cells (Ca2+ control, no Mn2+) (mouse, UniProt Q00651 41-1039; P26011 20-806); assay: flow cytometry on TK-1 cells without Mn2+ (Ca2+ control)
T2 construct: whole, on cells
T2 sequence (Q00651 41-1039, chain 1 of 2): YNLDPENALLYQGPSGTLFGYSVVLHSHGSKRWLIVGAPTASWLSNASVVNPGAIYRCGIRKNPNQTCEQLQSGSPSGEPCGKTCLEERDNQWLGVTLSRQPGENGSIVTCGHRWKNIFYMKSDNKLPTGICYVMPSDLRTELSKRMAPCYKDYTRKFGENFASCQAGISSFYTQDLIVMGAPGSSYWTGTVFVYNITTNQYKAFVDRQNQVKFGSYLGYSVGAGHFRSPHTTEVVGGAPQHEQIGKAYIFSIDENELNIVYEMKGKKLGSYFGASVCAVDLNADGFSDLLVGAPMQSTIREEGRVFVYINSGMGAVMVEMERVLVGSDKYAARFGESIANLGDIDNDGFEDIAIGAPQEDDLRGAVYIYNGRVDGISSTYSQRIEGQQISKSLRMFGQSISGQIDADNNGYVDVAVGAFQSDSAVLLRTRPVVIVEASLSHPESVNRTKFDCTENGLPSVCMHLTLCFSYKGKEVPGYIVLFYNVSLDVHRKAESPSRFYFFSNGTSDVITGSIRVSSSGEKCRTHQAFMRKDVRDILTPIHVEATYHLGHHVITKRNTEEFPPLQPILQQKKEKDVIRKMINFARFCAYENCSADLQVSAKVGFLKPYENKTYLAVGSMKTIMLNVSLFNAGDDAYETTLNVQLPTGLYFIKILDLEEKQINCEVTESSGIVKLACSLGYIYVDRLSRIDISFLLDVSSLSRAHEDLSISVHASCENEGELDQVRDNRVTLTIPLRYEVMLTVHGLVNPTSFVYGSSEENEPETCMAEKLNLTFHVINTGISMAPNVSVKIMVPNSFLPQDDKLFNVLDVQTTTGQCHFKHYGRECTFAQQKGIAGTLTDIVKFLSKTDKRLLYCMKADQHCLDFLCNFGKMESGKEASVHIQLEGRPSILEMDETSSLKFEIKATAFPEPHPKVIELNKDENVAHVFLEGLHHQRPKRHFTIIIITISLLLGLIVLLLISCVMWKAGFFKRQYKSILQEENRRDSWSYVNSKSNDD
T2 sequence (P26011 20-806, chain 2 of 2): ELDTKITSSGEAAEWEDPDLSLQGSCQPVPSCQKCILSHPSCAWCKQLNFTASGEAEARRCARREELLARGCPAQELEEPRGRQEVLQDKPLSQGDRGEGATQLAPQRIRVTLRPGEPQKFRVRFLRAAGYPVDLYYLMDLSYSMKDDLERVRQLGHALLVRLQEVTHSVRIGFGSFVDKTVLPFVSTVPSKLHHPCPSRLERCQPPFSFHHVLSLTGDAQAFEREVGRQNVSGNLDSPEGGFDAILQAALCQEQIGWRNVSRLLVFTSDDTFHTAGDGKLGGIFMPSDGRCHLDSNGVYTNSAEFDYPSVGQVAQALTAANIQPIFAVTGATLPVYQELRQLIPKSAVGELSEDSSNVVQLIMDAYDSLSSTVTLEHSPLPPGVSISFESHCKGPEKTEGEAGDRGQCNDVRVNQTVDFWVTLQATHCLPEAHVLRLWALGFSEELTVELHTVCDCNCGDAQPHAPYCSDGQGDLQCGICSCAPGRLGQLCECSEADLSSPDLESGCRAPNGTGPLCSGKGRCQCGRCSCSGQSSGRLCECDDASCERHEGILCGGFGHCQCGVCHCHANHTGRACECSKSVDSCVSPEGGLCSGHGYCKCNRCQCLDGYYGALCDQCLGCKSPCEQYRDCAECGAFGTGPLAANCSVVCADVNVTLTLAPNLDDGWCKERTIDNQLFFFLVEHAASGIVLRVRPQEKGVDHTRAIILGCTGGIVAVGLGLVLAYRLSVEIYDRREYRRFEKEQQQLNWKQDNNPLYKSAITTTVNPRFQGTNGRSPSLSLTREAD
Method: as §1, §2

T1 sequence (Q00651 41-1039, chain 1 of 2): as the sequence (Q00651 41-1039, chain 1 of 2) above
T1 sequence (P26011 20-806, chain 2 of 2): as the sequence (P26011 20-806, chain 2 of 2) above

B1: MAdCAM-mD1D2-Fc fusion protein (D62A mutated control) (Fc fusion)
chain: DYKDDDDKLAAAQSFQVNPPESEVAVAMGTSLQITCSMSCDEGVARVHWRGLATSLGSVQTLPGSSILSVRGMLSDTGTPVCVGSCGSRSFQHSVKILVYAFPDQLVVSPEFLVPGQDQVVSCTAHNIWPADPNSLSFALLLGEQRLEGAQALEPEQEEEIQEAEGTPLFRMTQRWRLPSLGTPAPPALHCQVTMQLPKLVLTHRKEIPVLGGGGSGGGGSGGGGSVPRECNPCGCTGSEVSSVFIFPPKTKDVLTITLTPKVTCVVVDISQNDPEVRFSWFIDDVEVHTAQTHAPEKQSNSTLRSVSELPIVHRDWLNGKTFKCKVNSGAFPAPIEKSISKPEGTPRGPQVYTMAPPKEEMTQSQVSITCMVKGFYPPDIYTEWKMNGQPQENYKNTPPTMDTDGSYFLYSKLNVKKETWQQGNTFTCSVLHEGLHNHHTEKSLSHSPGKGSGHHHHHH
notes: The signal peptide, FLAG-tag and 6x HIS-tag are as in D1D2-Fc; also called mD1D2 control; targeting protein of the mD1D2-targeted LNPs (mD1D2-LNPs)
Q: Does B1 bind [1]?
A: no binding

Q: Does B1 bind [2]?
A: no binding
